In the nanobody polyreactivity screen of Harvey et al. (2022):

test: yeast display, Sf9 membrane polyspecificity reagent, FACS + sequencing; frameworks hold sequencing errors
Method in brief: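 Polyreactivity labels are assigned by the sorting gate from which each nanobody was recovered. The gates were low and high (top ~1%), set on anti-HA fluorescence for expression and streptavidin fluorescence for reagent binding. Before sorting, galactose-induced (36–48 hours) yeast display cells were stained for 1 hour at 4 °C with 10% biotinylated, detergent-solubilized Sf9 membrane reagent.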

Sequence	polyreactivity (PSR sort gate)
QDQLVESGGGLVQAGGSLRLSCAASGRTFGTYAMGWYRQAPGKERELVAAISSSGGRTYYADSVKGRFTISRDNAKNTVYVLMHSLKPEVTAVYYFAKSRYATQTDYNYWGQGTQVTVSS	high polyreactivity
QDQLVESGGGLVQAGGSLRLSCAASGRTFKINAMGWYRHAPGTERELVAAITYSGCTTYYADSVKGRFTISRDNAKNTVYLQMNSLKPEDTAVYYCATPSRKSGVGYPSYNYWGQGTQVTVSS	high polyreactivity
QDQLVESGGGLVQAGGSLRLSCAASGRTFLRNAMGWYRQAPGKERELVAAISRSGGSTYYADSVKGRVTISRDNAKNTVYLQMNSLKPEDTAVYYCAADDYGGYYYWGQGTQVTVSS	high polyreactivity
QDQLVESGGGLVQAGGSLRLSCAASGRTFNYNTMGWYIQAPGKERELVAAINKGGTRTYYADSVKGRFTISRDNAKNTVYLEMNSLKPEDTAVYYCAARLYSYDYWGQGTQVTVSS	high polyreactivity
QDQLVESGGGLVQAGGSLRLSCAASGRTFNYYGMGWYRQAPGKERELVAAISRGGTTNYADSVKGRFTISRDNAKNTVYLQMNSLKPEDTAVYYCAKGRSHWHSYQYVRPNYDYLGQGTQVTVSS	high polyreactivity
QDQLVESGGGLVQAGGSLRLSCAASGRTFPRNGMGWYRQAPGKERELVAAISWSGGRTYYADSVKGRFTISRDNAKNTVYLQMNSLKPEDTAVYYCNALYFRKGGYWGQGTQVTVSS	high polyreactivity
QDQLVESGGGLVQAGGSLRLSCAASGRTFTFNTMGWYRQAPGKERELVAAIVGDGTTNYADSVKGRFTISRDNAKNTVYLQMYSLKPEDTAVYYCAADFLYSFWYEPTFDYWGQGTQVTVSS	low polyreactivity
QDQLVESGGGLVQAGGSLRLSCAASGRTFTVYAMGWYRPAPGKEREMVAAISRSGGRTYYADSVKGRFTISRDNAMNTVYLQRNSLKPEDTAVYYCAADVPYRTNDFDYWGQGTQVTVSS	high polyreactivity
QDQLVESGGGLVQAGGSLRLSCAASGRTFVGYAMGWYRQAPGKERELVAAITSGGRTNYADSVKGRCTISRDNAKNTVYLQMTSLKPEDTAVYYCNARTRHRGQIALDYWGQGTQVTVSS	high polyreactivity
QDQLVESGGGLVQAGGSLRLSCAASGRTFVKYAMGWYRQAPGKERELVAAISRRGGSTYYADSVKGRFTISRDNAKNTVYLQMNSLKPEDTAVYYCAVSIGRYPYRYGYWGQGTQVTVSS	high polyreactivity
QDQLVESGGGLVQAGGSLRLSCAASGRTFYLYAMGWYSQAPGKEREFVAVINSSGGSTYYADSVKGRFTISRDNAKNTVYLQMNSLKPEDTAVYYCAAYPIPRGRDYWGPGTQVTVSS	low polyreactivity
QDQLVESGGGLVQAGGSLRLSCAASGRTYGSYAMGWYRQAPGQEMELVAAISRSDGSTYYADSVKGRFTISRDNAKNTVYLQMNSLKPEDTAVYYCAAKRWYVSYDYDYWGQGTQVTVSS	high polyreactivity
QDQLVESGGGLVQAGGSLRLSCAASGSIFLDNAMGWYRQAPGKERELVAAISKSGTRTYYADSVKGRFTISRDNAKNTVYLQMNSLKPEDTAVYYCNVVPKQAKSVELIGYYYWGQGTQVTVSS	high polyreactivity
QDQLVESGGGLVQAGGSLRLSCAASGSIFRYYAMGWYIQAPGKERELVAAITNSGGSTYYADSVKGRFTISRDNAKNTVYLQMNSLKPEDTAVYYCNARFRARPRMGYWGQGTQVTVSS	high polyreactivity
QDQLVESGGGLVQAGGSLRLSCAASGSIFTHNAMGWYRQAPGKERELVAAISSGGSTNYADSVKGRFTFSRDNAKNTVYLQMNSLKPEDTAVYYCAKSIDGWYWRRRRYDYWGQGTQVTVSS	low polyreactivity
QDQLVESGGGLVQAGGSLRLSCAASGSIFTKYAMGLYRQAPGKEREFVAAIDVNGGSTRYADSVKGRFTISRDYANNTVYLQMYSLKPEDTAVYYCAKDYTASYYPQGLYDYWGQGTQVTVSS	low polyreactivity
QDQLVESGGGLVQAGGSLRLSCAASGSIFVENDMGWYRQAPGKERELVAVITSGGSTYYADSVKGRFTISRDNAKNTVYLQMNSLKPEDTAVYYCNKDYAAIDRYDSWGQGTQVTVSS	low polyreactivity
QDQLVESGGGLVQAGGSLRLSCAASGSIFVSYTMGWYRQAPGKERELVAAITRSGGSTYYADSVKGRFTISRDNAKNTVYLQLNSLKPEDTAVYYCNATPANKYYRSTRGYAYNYWGQGTQVTVSS	low polyreactivity
QDQLVESGGGLVQAGGSLRLSCAASGSIFVYNTMGWYRQAPGKERELVAAISSSGGSTYYADSVKGRFTISRDNAKNTVYLQMNSLKPEDTAVYYCAAVNGYQYAPYYYNGYDFWGQGTQVTVSS	low polyreactivity
QDQLVESGGGLVQAGGSLRLSCAASGSIFWSNAMGWYRQAPGKERELVASISSSGSTYYADSVKGRFTISRDNAKNTVYLQMNSLKPEDTGVYYCAAGSAYYSQRYFAYGYDSWGQGTQVTVSS	low polyreactivity
QDQLVESGGGLVQAGGSLRLSCAASGSILIHNAMGWSRQAPGKERELVAAITSGGSTNYADSVKGRFTISRDNAKNTVYLQMNSLKPEDTAVYYCATAVGRVLVGYDYWGQGTQVTLSS	low polyreactivity
QDQLVESGGGLVQAGGSLRLSCAASGSILLLNMGWYRQAPGKEMELVASIRWSGGITYYADSVKGRFTISRDNAKNTVYLQMNSLKPEDTAVYYCAARTYRYFGRYDYWGQGTQVTVSS	high polyreactivity
QDQLVESGGGLVQAGGSLRLSCAASGSILVRNARGWYRQAPGKERELVASIDSGTSTNYADSVKGRFTISRDNAKTTVYLQLNSLKPEDTAVYYCAADWYYLWGRYYFWGQGTQVTVSS	high polyreactivity
QDQLVESGGGLVQAGGSLRLSCAASGSISWVYSMGWYRQAPGKEREFVAAISESGDTYYADSVKGRFTISRDNAKNTVYLQMNSLKPEDTAVYYCAATSPDGVTYDYWGHGTQVTVSS	low polyreactivity
QDQLVESGGGLVQAGGSLRLSCAASGSTFFGNAMGWSRQAPGKERELVAAISRGGGSTYYADSVKGRLTISRDNAKNTVYLQMNCLKPEDTAVYYCNADDPWTGTAVSTPNDSWGQGTQVTVSS	low polyreactivity
QDQLVESGGGLVQAGGSLRLSCAASGSTFKYYAMGWYRQAPGKERELVAAISWTGGSTYYADSVKGRFTISRDNAKNTVYLQMNSLKPEDTAVYYCNAMGHVQGYDYWGQVTQVTVSS	high polyreactivity
QDQLVESGGGLVQAGGSLRLSCAASGSTFPKYAMGWYRQAPGKERELVASISVTTGSTYYADSVKGRFTISRDNAKNTVYLQMNSLKPEDTAVYYCPKRTYSRKFRGAYNYWGQGTQVTVSS	high polyreactivity
QDQLVESGGGLVQAGGSLRLSCAASGSTFPNNAMGWYREAPGKERELVATITTGGSTYYADSVKGRFTISRDNAKNTVYLQMNSLKPEDTAVYYCAADHLSYRRRYEYWGQGTQVTVSS	low polyreactivity
QDQLVESGGGLVQAGGSLRLSCAASGSTFVPNAMGWYRQAPGKERELVAVISDSGVTTYYADSVKGRFTISRDNAKNTVYLQMNSLKPEDTAVYYCAARQDTWDAYLSTGEFDYWGQGTQVTVSS	high polyreactivity
QDQLVESGGGLVQAGGSLRLSCAASGSTLNGNAMGWYRQAPGKERELVAAITTSGGSTYYADSVKGRFTISRDNAKNTVYLQMNSLKPEDTAVYYCNKLIGRRYGWANGYDYWGQGTQVTVSS	low polyreactivity
